± gives the standard error. This sample holds only a part of the variants without activity.
B1: glmS ribozyme (parent)
chain: AUAAAAGCGCCAGAACUACAGAAAUGUAGUUGACGAGGAGGAGGUUUAUCGAAUUUUCGGCGGAUGCCUCCAAA

Experiments:
Conditions in all cases: with glucosamine-6-phosphate
glucosamine-6-phosphate [1] = variants of: B1; assay: self-cleavage kobs at 640 uM GlcN6P; higher = faster cleavage; RNA array
Procedure, shortened: (§1)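 Ribozyme variants carrying barcodes were transcribed in situ on sequenced MiSeq chips by E. coli RNA polymerase and tracked at 37 °C with a hybridised Cy3 probe. They were exposed to 40 μM to 10 mM glucosamine-6-phosphate in HEPES/KCl/Mg(OAc)2 buffer. kobs came from exponential decay fits of normalised per-tile medians, and kcat and KM from weighted Michaelis–Menten fits.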

glucosamine-6-phosphate [2] = variants of: B1; assay: self-cleavage kobs at 2500 uM GlcN6P; higher = faster cleavage; RNA array
Procedure, shortened: as §1

glucosamine-6-phosphate [3] = variants of: B1; assay: self-cleavage kobs at 10000 uM GlcN6P; higher = faster cleavage; RNA array
Procedure, shortened: as §1

Variant | self-cleavage kobs at 640 uM GlcN6P (glucosamine-6-phosphate [1]) | self-cleavage kobs at 2500 uM GlcN6P (glucosamine-6-phosphate [2]) | self-cleavage kobs at 10000 uM GlcN6P (glucosamine-6-phosphate [3])
AUAAAAGUGCCAGAACUACAGAAAUGUAGUUGACGAGGAGGAGGUUUAUCGAGUAUUCGGCGGAUGCGUCCAAA [C8U A53G U55A C68G] | 0.000442 ± 0.00017 s⁻¹ |  | 
AUAAAAGCGACAGAACUACAGAAAUGUAGUUGACGCGGAGGAGGUAUAUCGAAUUUUCGGCGGAUGCCUCCAAA [C10A A36C U46A] | < 1e-05 s⁻¹ | < 1e-05 s⁻¹ | < 1e-05 s⁻¹
AUAAAAUCGCCAGAACUACAGAAAUGUAUUUGACGAGGAGGAGGUUUCUCGAAUUUUCGGCGGAUGCCUCCAAA [G7U G29U A48C] | < 1e-05 s⁻¹ | < 1e-05 s⁻¹ | < 1e-05 s⁻¹
AUAAAAGCGCAAGAUCUACAGAAAUGUAGUUGACGAGGAGGAGGUUUAUCGAAUUUUCGGCGGCUGCCUCCAAA [C11A A15U A64C] | < 1e-05 s⁻¹ | < 1e-05 s⁻¹ | 
AUAAAAGCGCCAGAACUACAGAAAUGUAUUUGACGAGGAGGAGGUUUUUCGAAUUUUCGGUGGAUGCCUCCAAA [G29U A48U C61U] | < 1e-05 s⁻¹ |  | 
AUAAAAGCGCCAGAACUACAGAAAUGUAGUUGACGAGGAGGGGGUUUAUCGAAUCUUCGGCGGAUUCCUCCAAA [A42G U55C G66U] | 0.000398 ± 7.7e-05 s⁻¹ | 0.000634 ± 0.00014 s⁻¹ | 0.00167 ± 0.00029 s⁻¹
AUAAAGGCUCCAGAACUACAGAAAUGUAGUUGACGAGGAGGAGGUUUAUCGAAUUUUAGGCGGAUGCCUCCAAA [A6G G9U C58A] | < 1e-05 s⁻¹ | < 1e-05 s⁻¹ | < 1e-05 s⁻¹
AUAAAUGCGCCAGAACUACAGAAAUGUAGUUGACGAGGACGAGGUUUAUCGAAUUUUCGGUCGAUGCCUCCAAA [A6U G40C C61U G62C] | < 1e-05 s⁻¹ |  | 
AUAAAAGCGCCAGAGCUACAGAAAUGUAUUUGACGAGGAGGAGGUUUAUCGAAUGUUCGGCGGGUGCCUCCAAA [A15G G29U U55G A64G] | 0.000144 ± 2.7e-05 s⁻¹ |  | 
AUAAAAGUGCCAGAACUACAGAAAUGUAGUUUACGAGGAGGAGGUUUAUCGAAUUUUCGGCGGAUGCAUCCAAA [C8U G32U C68A] | < 1e-05 s⁻¹ |  | 
AUAAAAGCGCCAGAACUACAGAAAUGUAGUUGACGAGGAGGAGGUCUAUCGAAUUUUCGGCGGAUGCCGCCAAA [U46C U69G] | 8.03e-05 ± 1.7e-05 s⁻¹ | 0.000153 ± 2.7e-05 s⁻¹ | 
AUAAAUGCGCCAUAACUACAGAAAUGUAGUUGACGAUGAGGAGGUUUUUCGAAUUUUCGGCGGAUGCCGCCAAA [A6U G13U G37U A48U U69G] | 9.26e-05 ± 2.7e-05 s⁻¹ |  | 
AUAAAAGCGCCAGCACUACAGAAAUGUAGUUGACGAGGAGGAGGUGUAUCGAAUUUUCGGCGGAUACCUCCAAA [A14C U46G G66A] | 0.000298 ± 5.1e-05 s⁻¹ | 0.000166 ± 3.6e-05 s⁻¹ | 
AUAAAAGCGCCAGAGCUACAGAAAUGUAGUAGACGAGGAGGAGGUUGAUCGAAUUUUCGGCGGAUGCCUCCAAA [A15G U31A U47G] | 0.000471 ± 0.00011 s⁻¹ | 0.00142 ± 0.0005 s⁻¹ | 
AUAAAUGCGCCAGACCUACAGAAAUGUAGUUGACGAGGAGGAGUUUUAUCGAAUUUUCGGCGGAUGCCUCCAAA [A6U A15C G44U] | < 1e-05 s⁻¹ | < 1e-05 s⁻¹ | 
AUAAAAGCGCGAGAACUACAGAAAUGUAGUUGACGAGGAGGAGGUUUAUCGAAUUUUCGGCGGAUGCCUGCAAA [C11G C70G] | 9.08e-05 ± 1.6e-05 s⁻¹ | 5.33e-05 ± 1.4e-05 s⁻¹ | 2.25e-05 ± 9.6e-06 s⁻¹
AUAAAAGCGCGAGGACUACAGAAAUGUAGUUGAAGAGGAGUAGGUUUACCGAAUUUUCGGCGGAUGCCUCCAAA [C11G A14G C34A G41U U49C] | < 1e-05 s⁻¹ |  | 
AUAAAAGCGCCAGAAGUACAGAAAUGUAGUUGACCAGGAGGAGGUUUAUCGAAUAAUCGGCGGAUGCCUCCAAA [C16G G35C U55A U56A] | < 1e-05 s⁻¹ | < 1e-05 s⁻¹ | 
AUAAAAGCGCCAGCACUACAGAAAUGUAGUUGACGAGGAGAAGGUUUAUCGAAUUUUCGGCGGAUGCCUUCAAA [A14C G41A C70U] | 0.00173 ± 0.00026 s⁻¹ | 0.00489 ± 0.0012 s⁻¹ | 0.0111 ± 0.0021 s⁻¹
AUAAAAGCGCCAGCACUACAGAAAUGUAGUUGACUAGGAGGAGGUUUAUCGAAUUUUCGGAGGAUGCCUCCAAA [A14C G35U C61A] | < 1e-05 s⁻¹ |  | 
AUAAAAGCGCCUGAACUAUAGAAAUGUAGUUGACGAGGAGGAGGUUUAUCGAAUUUUCGGCGGAUGCCACCAAA [A12U C19U U69A] | 0.000392 ± 0.0001 s⁻¹ | 0.000303 ± 6e-05 s⁻¹ | 
AUAAAACCGCCAGAACUACAGAAAUGUAGUUGACGAGGAGGAGGUCUAUCGAAUUUUCGGCGGAUGCCUCCAAA [G7C U46C] | < 1e-05 s⁻¹ | < 1e-05 s⁻¹ | < 1e-05 s⁻¹

Variant | self-cleavage kobs at 640 uM GlcN6P (glucosamine-6-phosphate [1]) | self-cleavage kobs at 2500 uM GlcN6P (glucosamine-6-phosphate [2]) | self-cleavage kobs at 10000 uM GlcN6P (glucosamine-6-phosphate [3])
AUAAAAGCGCCAGAACUACAGAAAUGUAUUUGACGUGGGGGAGGUUUAUCGAAUUUUCGACGGAUGCCUCCAAA [G29U A36U A39G G60A] | < 1e-05 s⁻¹ |  | 
AUAAAAGUGCCAGAUCUACAGAAAUGUAGUUGACGAGGAGGAGGUUUCUCGCAUUUUCGGCGGAUGCCUUCAAA [C8U A15U A48C A52C C70U] | < 1e-05 s⁻¹ |  | 
AUAAAUGCGCCAGAGCUACAGAAAUGUAGUUGACGAGGAGGAGGUUUAUCGAAUUUUCGGCUGAUGCCGCCAAA [A6U A15G G62U U69G] | 0.000197 ± 5.9e-05 s⁻¹ |  | 
AUAAAAGCGCCAGAACUACAGAAAUGUAGUUGACGAGGAGGAUGUUUAUCGAAUUUUCGGCCGAUGACUCCAAA [G43U G62C C67A] | < 1e-05 s⁻¹ | < 1e-05 s⁻¹ | < 1e-05 s⁻¹
AUAAAAGCGACAGAAUUACAGAAAUGUAGUUGACAAGGAGGAGGUUUAUCGAAUUUUCGGCGGAUGCCUCCAAA [C10A C16U G35A] | < 1e-05 s⁻¹ | < 1e-05 s⁻¹ | 
AUAAAAGUGCCAGACCUACAGAAAUGUAGUUGACCAGGAGGAGGUUUAUCGAAUUUUCGGCGGAUGCUUCCAAA [C8U A15C G35C C68U] | < 1e-05 s⁻¹ |  | 
AUAAAAGCGCCAGAACUACAGAAAUGUAGUUGACGAGGUGGAGGUUUAUCGAAUUUUCGGCGGAUGAUUCCAAA [A39U C67A C68U] | 3.93e-05 ± 1.2e-05 s⁻¹ | 0.000112 ± 3e-05 s⁻¹ | 
AUAAAAGCGCCAGAACUACAGAAAUGUAGUUGACGAGGAGGAGGUUUACCGAAUUUUCGGCGCAUGGGUCCAAA [U49C G63C C67G C68G] | < 1e-05 s⁻¹ |  | 
AUAAAAGCGCCAGAACUACAGAAAUGUAGUUGACUAGGAGGAGGUUUAUCGAAUUUACGGCGGAUGCCUCCAAA [G35U U57A] | < 1e-05 s⁻¹ |  | < 1e-05 s⁻¹
AUAAAAGCGCCAUAACUACAGAAAUGUACUUGACGAGGAGGAGGUUUAUCGAAUUUUCGACGGAUGCCCUCAAA [G13U G29C G60A U69C C70U] | < 1e-05 s⁻¹ |  | 
AUAAAAGCGACAGAACUACAGAAAUGUAGUAGACGAGGAGGAGGUUUAUCGAAUUCUCGGCGGAUGCCUCCAAA [C10A U31A U56C] | < 1e-05 s⁻¹ | < 1e-05 s⁻¹ | < 1e-05 s⁻¹
AUAAAAGCGCCAGAACUACAGAAAUGUAGUUGACGAGGAGGAGGUUUAGGGAAUUUUCGGCGCAUGCCCCCAAA [U49G C50G G63C U69C] | 0.00018 ± 4.2e-05 s⁻¹ |  | 
AUAAAUGCGCCAGAACUACAGAAAUGUAGUUGACGAGGCGGAGGUUUAUCGAAUUCUCGGCGGAUGGCUCCAAA [A6U A39C U56C C67G] | < 1e-05 s⁻¹ |  | 
AUAAAACCGCCAGAACUACAGAAAUGUAGUUGACGAGGAGGAGGUUUGUCGAAGUUUCGGCGGAUGCCUCCAAA [G7C A48G U54G] | < 1e-05 s⁻¹ |  | 
AUAAAAGCGCCAGAACUACAGAAAUGUAGUUGACGAGGAGGAGGUUUAUCGAAUGUUCGGCGUAGGCCUCCAAA [U55G G63U U65G] | < 1e-05 s⁻¹ | < 1e-05 s⁻¹ | 
AUAAAAGACCCAGAACUACAGAAAUGUAGUUGACGACGAGGAGGUUUAUCGAAUUUUCGGCGGAUGCCUCCAAA [C8A G9C G37C] | < 1e-05 s⁻¹ |  | 
AUAAAAGCGCCAGAACUACAGAAAUGUAGUUGACGAGGCGGAAGUUUAUCGAAUUUUCGGCGGAUACCUCCAAA [A39C G43A G66A] | < 1e-05 s⁻¹ |  | 
AUAAAAGAGCCAGAAAUACAGAAAUGUAGUUGACGAGGAGGAGGUUUAUCGAAUUUUCGGCGUGCGCCUCGAAA [C8A C16A G63U A64G U65C C71G] | < 1e-05 s⁻¹ |  | 
AUAAAAGCGCCAGCACUACAGAAAUGUAGUUGACGAGGAGGAUGUUUAUCGAAUUAUCGGCGGAUGCUUCCAAA [A14C G43U U56A C68U] | 9.14e-05 ± 2.6e-05 s⁻¹ | 0.000133 ± 3.7e-05 s⁻¹ | 
AUAAAAGGGCCAGAACUACAGAAAUGUAGUUGACGAGGAGGAGGUUUAUCGAAUUUUUCGUGGAUGGCUCCAAA [C8G C58U G59C C61U C67G] | < 1e-05 s⁻¹ | < 1e-05 s⁻¹ | 
AUAAAAGCGCCGGAACUACAGAAAUGUAGUUGACGAGGAGGAGGGUUAUCGUAUUUUCGGGGGAUGCCUCCAAA [A12G U45G A52U C61G] | < 1e-05 s⁻¹ |  | 
AUAAAAGCGCCAGAACUACAGAAAUGUAUUUGAUGAGGAGGAGGUUUAUCGAAUUUUCGGCGGAUGCCUCCAAA [G29U C34U] | < 1e-05 s⁻¹ |  | 

Source: the supplement of paper PMC7125110
